The data set in a line: Michaelis–Menten kinetic analysis with colorimetric substrate nitrocefin. The format is biochemical. As to conditions: PBS, 30 °C, mean ± SEM.

As usually defined, the kcat/Km is the second-order rate constant that governs catalysis at low substrate concentration.

B1: Enterobacter chloacae P99 beta-lactamase (protein, UniProt P05364 21-381, looked up)
Beta-lactamase: TPVSEKQLAEVVANTITPLMKAQSVPGMAVAVIYQGKPHYYTFGKADIAANKPVTPQTLFELGSISKTFTGVLGGDAIARGEISLDDAVTRYWPQLTGKQWQGIRMLDLATYTAGGLPLQVPDEVTDNASLLRFYQNWQPQWKPGTTRLYANASIGLFGALAVKPSGMPYEQAMTTRVLKPLKLDHTWINVPKAEEAHYAWGYRDGKAVRVSPGMLDAQAYGVKTNVQDMANWVMANMAPENVADASLKQGIALAQSRYWRIGSMYQGLGWEMLNWPVEANTVVEGSDSKVALAPLPVAEVNPPAPPVKASWVHKTGSTGGFGSYVAFIPEKQIGIVMLANTSYPNPARVEAAYHILEALQ
modifications: C-terminal His6 tag
Regarding B1, the kcat/Km came to 7.5e+06 ± 600000 M⁻¹ s⁻¹.

The values above are taken from publication PMC4234684 (Cellular and molecular life sciences : CMLS, 2014).
